Laboratory results reported in the supplement of paper PMC7877785.
± gives the uncertainty stated by the source.

Assay: self-splicing fitness, log relative to wild type (ln ratio); higher = more splicing; Tetrahymena group I intron in knt gene, E. coli kanamycin selection, DiMSum; sequences stand for … in CUCUCU…GGAGGGAAAAGUUAUCAGGCAUGCACCUGGUAGCUAGUCUUUAAACCAAUAGAUUGCAUCGGUUUAAAAGGCAAGACCGUCAAAUUGCGGGAAAGGGGUCAACAGCCGUUCAGUACCAAGUCUCAGGGGAAACUUUGAGAUGGCCUUGCAAAGGGUAUGGUAAUAAGCUGACGGACAUGGUCCUAACCACGCAGCCAAGUCCUAAGUCAACAGAUCUUCUGUUGAUAUGGAUGCAGUUCACAGACUAAAUGUCGGUCGGGGAAGAUGUAUUCUUCUCAUAAGAUAUAGUCGGACCUCUCCUUAAUGGGAGCUAGCGGAUGAAGUGAUGCAACACUGGAGCCGCUGGGAACUAAUUUGUAUGCGAAAGUAUAUUGAUUAGUUUUGGAGUACUCGUGGUCG
Procedure, shortened: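 Colonies from six replicate transformations of E. coli BL21(DE3) were pooled and amplicon-sequenced on an Illumina HiSeq 2500. The library placed an intron with all eight P1ex-region nucleotides randomised inside the knt kanamycin-resistance gene on pET-22b(+), and cells grew overnight at 37°C or 30°C on LB agar with or without 25 μg/mL kanamycin (plus 100 μg/mL carbenicillin, 50 μM IPTG, 0.2% rhamnose). Fitness is the DiMSum error-weighted combination of wild-type-normalised replicate fold changes, kanamycin versus none.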

Sequence	self-splicing fitness (ln) (30 °C)	self-splicing fitness (ln) (37 °C)
GUGUAGCAAUAUUACGUUGA	-1.73 ± 0.14	-3.07 ± 0.36
GUUAAGCAAUAUUACGACCC		-0.221 ± 0.44
GUUAAGCAAUAUUACGACCG	-2.84 ± 0.48	-1.22 ± 0.4
GUUAAGCAAUAUUACGAUAG		-2.07 ± 0.34
GUUAAGCAAUAUUACGAUCC	-1.62 ± 0.13	0.0862 ± 0.16
GUUAAGCAAUAUUACGCACC	-2.89 ± 0.3	-2.13 ± 0.32
GUUAAGCAAUAUUACGCCCA	0.115 ± 0.22	-0.355 ± 0.29
GUUAAGCAAUAUUACGCGUU	-0.757 ± 0.08	-1.07 ± 0.12
GUUAAGCAAUAUUACGGAAC		-1.43 ± 0.34
GUUAAGCAAUAUUACGGAAU	-2.75 ± 0.14	-1.39 ± 0.13
GUUAAGCAAUAUUACGGACU	-2.88 ± 0.2	-1.8 ± 0.2
GUUAAGCAAUAUUACGGGGU	-2.73 ± 0.28	-2.88 ± 0.35
GUUAAGCAAUAUUACGGUAA	-1.5 ± 0.15	-1.28 ± 0.14
GUUAAGCAAUAUUACGGUGA	-1.86 ± 0.15	-1.09 ± 0.12
GUUAAGCAAUAUUACGUAAG	-0.147 ± 0.098	-0.0396 ± 0.13
GUUAAGCAAUAUUACGUCCU	-0.303 ± 0.081	0.0564 ± 0.083
GUUAAGCAAUAUUACGUUCG	-1.6 ± 0.13	-0.376 ± 0.16
GUUCAGCAAUAUUACGACGU	0.000808 ± 0.063	0.108 ± 0.08
GUUCAGCAAUAUUACGAUCA	-1.81 ± 0.19	-0.536 ± 0.14
GUUCAGCAAUAUUACGAUCG	-0.518 ± 0.13	-0.548 ± 0.16

Sequence	self-splicing fitness (ln) (30 °C)	self-splicing fitness (ln) (37 °C)
GUUCAGCAAUAUUACGAUUU	-0.241 ± 0.078	0.331 ± 0.087
GUUCAGCAAUAUUACGCAUG	-0.538 ± 0.1	-1.02 ± 0.13
GUUCAGCAAUAUUACGCCAA	-1.32 ± 0.21	-1.72 ± 0.18
GUUCAGCAAUAUUACGCUCA	-0.457 ± 0.11	-0.298 ± 0.13
GUUCAGCAAUAUUACGCUCU	-0.149 ± 0.09	0.0537 ± 0.097
GUUCAGCAAUAUUACGCUUU	-0.726 ± 0.088	0.0124 ± 0.11
GUUCAGCAAUAUUACGGCAC	-0.46 ± 0.21	0.473 ± 0.24
GUUCAGCAAUAUUACGGCCC	-0.59 ± 0.19	0.24 ± 0.24
GUUCAGCAAUAUUACGGCCG	-2.57 ± 0.24	-0.72 ± 0.17
GUUCAGCAAUAUUACGGCGG	-4.13 ± 0.47	-2.06 ± 0.38
GUUCAGCAAUAUUACGGUCA	-1.42 ± 0.12	-0.536 ± 0.086
GUUCAGCAAUAUUACGGUUU	-0.523 ± 0.052	-0.0386 ± 0.061
GUUCAGCAAUAUUACGUCCA	-0.981 ± 0.17	-1.05 ± 0.21
GUUCAGCAAUAUUACGUCGU	-0.64 ± 0.098	0.241 ± 0.11
GUUCAGCAAUAUUACGUUGU	-1.68 ± 0.096	-0.287 ± 0.11
GUUGAGCAAUAUUACGAAUA	-1.6 ± 0.16	-1.44 ± 0.18
GUUGAGCAAUAUUACGACUU	-2.53 ± 0.2	-1.92 ± 0.21
GUUGAGCAAUAUUACGAGAC		-0.388 ± 0.31
GUUGAGCAAUAUUACGAUAA	-3.96 ± 0.46	-1.94 ± 0.26
